Experimental data from US11981713B2, “Method for manufacturing a stable emulsion for peptide delivery” (OSE IMMUNOTHERAPEUTICS, priority 2017, dated 2024).

Tests used:
Format in all cases: physicochemical
[1] = Chemical stability of the emulsion (peptide content by LC/MS); settings: for Content after 2 month at 5° C.: emulsion of Example 5, 2 month at 5° C.; for Content after 2 month at 25° C.: emulsion of Example 5, 2 month at 25° C.; for Content after 2 month at −20° C.: emulsion of Example 5, 2 month at −20° C.; for Initial content: emulsion of Example 5, initial
Procedure: The chemical stability of the peptides contained in the emulsion prepared according to Example 5 is assessed by means of the following method.
A sample of 0.9 g of the emulsion of Example 5 is accurately weighted and mixed with 0.1% TFA in DMSO so as to fill a 5 mL volumetric flask. The mixture is then vortexed for 2 minutes and centrifuged for 7 minutes at 4000 rpm. The lower layer is then analyzed by Liquid Chromatography/Mass Spectroscopy (LC/MS) using the following chromatographic conditions:
Column: Advance Bio Peptide Mapping LC column, 2.1×250 mm, 2.7 μm, C18, 120 Å, Agilent® reference n° 651750-902 or equivalent
Column temperature: 35° C.±2° C.
Sample temperature: 5° C.
Needle wash: 0.1% Trifluoroacetic acid (TFA) in dimethylsulfoxide (DMSO)
Mobile phase: Eluent A: 0.2% TFA in 5% acetonitrile
• Eluent B: 0.2% TFA in 95% acetonitrile Gradient table: […]
A standard solution is prepared by transferring 0.9 mL of the batch suspension described in Example 1 with 1.1 mL of Montanide ISA 51 in a 10.0 mL volumetric flask, then vortexing and centrifuging the mixture as described above. The lower layer thus obtained is analyzed in the same conditions as above.
The concentration of each peptide is expressed in mg/g using the formula:
[formula] where: A: is the peak area of each peptide in the sample solution S: is the peak area of each peptide in the standard solution W: is the sample weight expressed in g

[2] = Peptide concentration in emulsions prepared with different stirring times; settings: initial concentration in emulsion
Procedure: Emulsions according to this invention were prepared as described in Example 5, using different stirring times.

[3] = Comparative experiment: emulsion made with high shear mixer, consistency and peptide oxidation; settings: high shear mixer batches at 5000 and 8000 rpm
Procedure: The suspension prepared as described in Example 1 was mixed with the same adjuvant, in the same ratio, except that mixing was conducted by means of a high shear mixer (Silverson® Verso) having a rotor-stator configuration. […] Other batches obtained with the same mixer at 5000 and 8000 rpm led to peptide degradation. Specifically, 8.5% oxidation of peptide […] (SEQ ID NO: 5) was noted after 6 weeks storage at 4° C. and still 2% oxidation at −20° C.

Substance: YLSGADLNL [MPS-200]
- Content after 2 month at 5° C. [1]: 0.56 mg/g
- Content after 2 month at 25° C. [1]: 0.55 mg/g
- Content after 2 month at −20° C. [1]: 0.56 mg/g
- Initial content [1]: 0.58 mg/g
- Concentration ([2]; stirring time 5 minutes): 570 µg/mL
- Concentration ([2]; stirring time 10 minutes): 570 µg/mL
- Concentration ([2]; stirring time 15 minutes): 570 µg/mL

Substance: aKXVAAWTLKAAa [MPS-7, peptide with X and a respectively indicating cyclohexylalanine and d-alanine]
- Content after 2 month at 5° C. [1]: 0.56 mg/g
- Content after 2 month at 25° C. [1]: 0.56 mg/g
- Content after 2 month at −20° C. [1]: 0.56 mg/g
- Initial content [1]: 0.58 mg/g
- Concentration ([2]; stirring time 5 minutes): 580 µg/mL
- Concentration ([2]; stirring time 10 minutes): 580 µg/mL
- Concentration ([2]; stirring time 15 minutes): 570 µg/mL

Substance: KLBPVQLWV [MPS-102]
- Content after 2 month at 5° C. [1]: 0.55 mg/g
- Content after 2 month at 25° C. [1]: 0.55 mg/g
- Content after 2 month at −20° C. [1]: 0.55 mg/g
- Initial content [1]: 0.57 mg/g
- Concentration ([2]; stirring time 5 minutes): 560 µg/mL
- Concentration ([2]; stirring time 10 minutes): 570 µg/mL
- Concentration ([2]; stirring time 15 minutes): 560 µg/mL

Substance: IMIGHLVGV [MPS-214]
- Content after 2 month at 5° C. [1]: 0.51 mg/g
- Content after 2 month at 25° C. [1]: 0.50 mg/g
- Content after 2 month at −20° C. [1]: 0.51 mg/g
- Initial content [1]: 0.53 mg/g
- oxidation ([3]; after 6 weeks storage at 4° C.): 16.5%
- oxidation ([3]; storage at −20° C.): 4%
- Concentration ([2]; stirring time 5 minutes): 530 µg/mL
- Concentration ([2]; stirring time 10 minutes): 530 µg/mL
- Concentration ([2]; stirring time 15 minutes): 530 µg/mL

Substance: SMPPPGTRV [MPS-103]
- Content after 2 month at 5° C. [1]: 0.54 mg/g
- Content after 2 month at 25° C. [1]: 0.54 mg/g
- Content after 2 month at −20° C. [1]: 0.55 mg/g
- Initial content [1]: 0.55 mg/g
- oxidation ([3]; after 6 weeks storage at 4° C.): 8.5%
- oxidation ([3]; storage at −20° C.): 2%
- Concentration ([2]; stirring time 5 minutes): 530 µg/mL
- Concentration ([2]; stirring time 10 minutes): 560 µg/mL
- Concentration ([2]; stirring time 15 minutes): 540 µg/mL

Substance: RLLQETELV [MPS-112]
- Content after 2 month at 5° C. [1]: 0.55 mg/g
- Content after 2 month at 25° C. [1]: 0.55 mg/g
- Content after 2 month at −20° C. [1]: 0.55 mg/g
- Initial content [1]: 0.57 mg/g
- Concentration ([2]; stirring time 5 minutes): 560 µg/mL
- Concentration ([2]; stirring time 10 minutes): 570 µg/mL
- Concentration ([2]; stirring time 15 minutes): 560 µg/mL

Substance: LLTFWNPPV [MPS-213]
- Content after 2 month at 5° C. [1]: 0.54 mg/g
- Content after 2 month at 25° C. [1]: 0.54 mg/g
- Content after 2 month at −20° C. [1]: 0.55 mg/g
- Initial content [1]: 0.56 mg/g
- Concentration ([2]; stirring time 5 minutes): 560 µg/mL
- Concentration ([2]; stirring time 10 minutes): 560 µg/mL
- Concentration ([2]; stirring time 15 minutes): 560 µg/mL
